Reference: the Immune Epitope Database (IEDB)

Columns and labels:
HLA-A*30:01 [1] = assay: IEDB peptide-MHC binding, purified MHC/competitive/radioactivity; ≥ and ≤ were set here for values at or beyond the usual limits of such assays; settings: source organism: Mus musculus
HLA-A*31:01 = assay: as above
HLA-A*03:01 = assay: as above
HLA-A*33:01 [2] = assay: as above
HLA-A*68:01 = assay: as above
HLA-A*11:01 [3] = assay: as above
HLA-A*66:01 [4] = assay: as above
HLA-B*53:01 = assay: as above
HLA-B*42:01 = assay: as above
HLA-B*07:02 = assay: as above
HLA-A*30:01 [5] = assay: IEDB peptide-MHC binding, purified MHC/competitive/radioactivity; filed as Kd, often an IC50 or EC50 that approximates it; ≥ and ≤ were set here for values at or beyond the usual limits of such assays; settings: source organism: Homo sapiens
HLA-A*11:01 [6] = assay: as above; settings: source organism: Mus musculus
HLA-A*33:01 [7] = assay: as above; settings: source organism: Homo sapiens
HLA-B*35:03 = assay: IEDB peptide-MHC binding, purified MHC/competitive/radioactivity; ≥ and ≤ were set here for values at or beyond the usual limits of such assays; settings: source organism: Mus musculus
HLA-B*51:01 = assay: IEDB peptide-MHC binding, purified MHC/competitive/radioactivity; filed as Kd, often an IC50 or EC50 that approximates it; ≥ and ≤ were set here for values at or beyond the usual limits of such assays; settings: source organism: Mus musculus
HLA-B*54:01 = assay: as above; settings: source organism: Mus musculus
HLA-B*35:01 = assay: as above; settings: source organism: Mus musculus
HLA-A*66:01 [8] = assay: as above; settings: source organism: Mus musculus

AINSEMFLR
IC50 (HLA-A*30:01 [1]): 49.8 µM | IC50 (HLA-A*31:01; source organism: Mus musculus): 0.067 µM | IC50 (HLA-A*03:01; source organism: Mus musculus): 0.428 µM | IC50 (HLA-A*33:01 [2]; source organism: Mus musculus): 1.08 µM | IC50 (HLA-A*68:01; source organism: Mus musculus): 0.109 µM | IC50 (HLA-A*11:01 [3]; source organism: Mus musculus): 0.209 µM | IC50 (HLA-A*66:01 [4]; source organism: Mus musculus): 4.55 µM

GPGAGSLQPLAL
IC50 (HLA-B*53:01; source organism: Homo sapiens): 15.5 µM | IC50 (HLA-B*42:01; source organism: Homo sapiens): 6.07 µM | IC50 (HLA-B*07:02; source organism: Homo sapiens): 0.462 µM

LALEGSLQKR
IC50 (HLA-A*31:01; source organism: Homo sapiens): 38.4 µM | IC50 (HLA-A*03:01; source organism: Homo sapiens): 17.5 µM | IC50 (HLA-A*33:01 [2]; source organism: Homo sapiens): 3.27 µM | IC50 (HLA-A*68:01; source organism: Homo sapiens): 0.066 µM | IC50 (HLA-A*11:01 [3]; source organism: Homo sapiens): 34.5 µM | IC50 (HLA-A*66:01 [4]; source organism: Homo sapiens): 0.515 µM | Kd (HLA-A*30:01 [5]): ≥ 50 µM

LALEVARQKR
IC50 (HLA-A*30:01 [1]): 43 µM | IC50 (HLA-A*31:01; source organism: Mus musculus): 10.8 µM | IC50 (HLA-A*03:01; source organism: Mus musculus): 43.6 µM | IC50 (HLA-A*33:01 [2]; source organism: Mus musculus): 9.14 µM | IC50 (HLA-A*68:01; source organism: Mus musculus): 12.6 µM | IC50 (HLA-A*66:01 [4]; source organism: Mus musculus): 13 µM | Kd (HLA-A*11:01 [6]): ≥ 50 µM

PLALEGSLQ
IC50 (HLA-A*31:01; source organism: Homo sapiens): 39.4 µM | IC50 (HLA-A*03:01; source organism: Homo sapiens): 20.9 µM | IC50 (HLA-A*68:01; source organism: Homo sapiens): 41.5 µM | IC50 (HLA-A*11:01 [3]; source organism: Homo sapiens): 37.1 µM | IC50 (HLA-A*66:01 [4]; source organism: Homo sapiens): 48.5 µM | Kd (HLA-A*30:01 [5]): ≥ 50 µM | Kd (HLA-A*33:01 [7]): ≥ 50 µM

SPGDLQTLAL
IC50 (HLA-B*53:01; source organism: Mus musculus): 11 µM | IC50 (HLA-B*42:01; source organism: Mus musculus): 0.035 µM | IC50 (HLA-B*07:02; source organism: Mus musculus): 0.0044 µM | IC50 (HLA-B*35:03): 16.1 µM | Kd (HLA-B*51:01): ≥ 50 µM | Kd (HLA-B*54:01): ≥ 50 µM | Kd (HLA-B*35:01): ≥ 50 µM

TLALEVARQK
IC50 (HLA-A*30:01 [1]): 23.3 µM | IC50 (HLA-A*31:01; source organism: Mus musculus): 13 µM | IC50 (HLA-A*03:01; source organism: Mus musculus): 0.605 µM | IC50 (HLA-A*33:01 [2]; source organism: Mus musculus): 25.5 µM | IC50 (HLA-A*68:01; source organism: Mus musculus): 13.4 µM | IC50 (HLA-A*11:01 [3]; source organism: Mus musculus): 3.33 µM | Kd (HLA-A*66:01 [8]): ≥ 50 µM
